The record followed here is patent publication US20050089937A1 (H LUNDBECK A S, published 2005).

Experiment [1] concerns the target T1, human neuropeptide FF receptor (NPFF1) (human, UniProt Q9GZQ6 1-430). Description: cell-based or functional assay.
Experiment [2] has as its target T2, human NPFF2b (hNPFF2) receptor (human, UniProt Q9Y5X5 103-522). Description: cell-based or functional assay.
Experiment [3] addresses rat spinal cord membrane receptor. Description: competition with [125I]D-Tyr-NPFF, rat spinal cord membranes.
Experiment [4] has as its target T3, rat neuropeptide FF receptor (NPFF2) (rat, UniProt Q9EQD2 1-417).
T3 construct: Full-length cloned receptor; Also the native receptor in rat brain sections (autoradiography); also called rat NPFF2
Description: competition with [125I]D-Tyr-NPFF; rat NPFF2 against rat NPFF1. From the text: (§1) Additional pharmacological evaluation was done using 293 human embryonic kidney cells (HEK-293 cells) transiently expressing the genes encoding the human NPFF1, NPFF2, and rat NPFF1 receptors, as well as Cos-7 cells expressing the rat NPFF2 receptors.

Experiment [5] concerns the target T2, human NPFF2b (hNPFF2) receptor. Description: competition with [125I]D-Tyr-NPFF; human NPFF2 against human NPFF1.
Source text: as §1

Experiment [6] addresses T4, rat neuropeptide FF receptor (NPFF1) (rat, UniProt Q9EP86 1-432). Description: competition with [125I]D-Tyr-NPFF, HEK-293 cells with the cloned receptor.
Source text: as §1

The target in experiment [7] is T1, human neuropeptide FF receptor (NPFF1). The description is as above.
Source text: as §1

Experiment [8] concerns the target T2, human NPFF2b (hNPFF2) receptor. Described as above.
Source text: as §1

Experiment [9] concerns the target T4, rat neuropeptide FF receptor (NPFF1). Description: competition with [125I]D-Tyr-NPFF, membranes of COS-7 cells with rat NPFF1. From the text:
Cos-7 cells transiently expressing the gene encoding the novel rat NPFF1 receptor were used for pharmacological evaluation.

The target of experiment [10] is T3, rat neuropeptide FF receptor (NPFF2). Description: competition with [125I]D-Tyr-NPFF, cloned receptor (head: HEK-293; text: Cos-7).
Source text: as §1

No end group written: not given here.

T1 sequence (Q9GZQ6 whole entry): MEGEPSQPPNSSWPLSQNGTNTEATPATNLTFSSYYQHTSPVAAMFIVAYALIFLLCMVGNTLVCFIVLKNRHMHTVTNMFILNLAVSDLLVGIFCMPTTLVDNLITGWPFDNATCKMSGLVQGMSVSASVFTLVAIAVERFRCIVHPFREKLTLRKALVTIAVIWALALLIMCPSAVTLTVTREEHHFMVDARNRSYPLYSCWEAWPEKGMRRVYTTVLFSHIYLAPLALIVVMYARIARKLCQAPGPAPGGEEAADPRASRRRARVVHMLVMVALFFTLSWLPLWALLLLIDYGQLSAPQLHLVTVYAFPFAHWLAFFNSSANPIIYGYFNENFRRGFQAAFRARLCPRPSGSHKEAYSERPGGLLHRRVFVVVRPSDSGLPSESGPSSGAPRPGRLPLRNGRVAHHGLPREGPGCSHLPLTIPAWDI
T2 sequence (Q9Y5X5 103-522): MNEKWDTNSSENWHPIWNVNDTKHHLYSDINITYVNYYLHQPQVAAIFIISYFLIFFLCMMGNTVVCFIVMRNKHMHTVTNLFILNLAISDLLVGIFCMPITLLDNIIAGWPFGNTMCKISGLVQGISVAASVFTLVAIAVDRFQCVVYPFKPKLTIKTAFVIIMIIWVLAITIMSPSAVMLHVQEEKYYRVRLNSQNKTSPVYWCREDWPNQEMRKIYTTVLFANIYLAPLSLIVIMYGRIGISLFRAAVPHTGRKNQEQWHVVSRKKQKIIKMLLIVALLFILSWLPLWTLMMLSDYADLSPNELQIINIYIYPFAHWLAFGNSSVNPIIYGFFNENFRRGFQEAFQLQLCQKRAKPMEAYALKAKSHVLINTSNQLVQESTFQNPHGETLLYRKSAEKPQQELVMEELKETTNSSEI
T4 sequence (Q9EP86 whole entry): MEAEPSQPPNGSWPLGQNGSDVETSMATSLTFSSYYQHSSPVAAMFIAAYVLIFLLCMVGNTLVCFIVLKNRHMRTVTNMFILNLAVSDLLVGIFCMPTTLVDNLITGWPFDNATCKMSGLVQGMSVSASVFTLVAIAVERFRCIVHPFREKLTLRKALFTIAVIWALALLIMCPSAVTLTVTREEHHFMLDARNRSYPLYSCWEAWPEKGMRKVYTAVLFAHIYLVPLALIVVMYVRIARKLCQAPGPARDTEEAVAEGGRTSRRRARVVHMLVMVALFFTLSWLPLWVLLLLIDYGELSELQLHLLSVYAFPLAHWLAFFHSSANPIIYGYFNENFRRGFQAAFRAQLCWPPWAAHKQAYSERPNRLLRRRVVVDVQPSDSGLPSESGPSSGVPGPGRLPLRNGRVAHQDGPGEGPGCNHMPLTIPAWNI
T3 sequence (Q9EQD2 whole entry): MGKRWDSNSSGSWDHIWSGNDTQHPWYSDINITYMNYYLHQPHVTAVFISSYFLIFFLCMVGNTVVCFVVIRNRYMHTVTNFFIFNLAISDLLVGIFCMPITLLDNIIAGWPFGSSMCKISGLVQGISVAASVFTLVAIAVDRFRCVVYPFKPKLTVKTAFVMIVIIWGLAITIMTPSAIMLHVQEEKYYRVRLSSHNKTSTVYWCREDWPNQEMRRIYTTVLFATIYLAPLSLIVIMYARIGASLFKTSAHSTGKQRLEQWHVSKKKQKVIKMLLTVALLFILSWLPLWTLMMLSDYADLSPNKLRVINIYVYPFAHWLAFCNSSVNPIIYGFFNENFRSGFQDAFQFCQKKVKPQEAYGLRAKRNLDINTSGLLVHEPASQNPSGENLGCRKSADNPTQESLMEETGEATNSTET

What is called pKi is the Ki on a negative log10 scale, so that one unit is a factor of ten. A higher pKi goes with a low Ki. Regarding APSEPHHPGDQATQDQLAQYYSDLYQYITFVTRPRF (not fully specified; ends and bridges not checked, also called fPP) [Frog pancreatic polypeptide (frog PP) (Rana Temporaria)], the “% of NPPF Response, intracellular calcium mobilization” value in experiment [1] is 0 % of NPPF Response; in experiment [2], 78 % of NPPF Response. In addition, the results for the “pEC50, intracellular calcium mobilization” value in experiment [1] and in [2] were below 5 and 6.7, respectively. Besides, the negative logarithm of the Ki (pKi) in [3] was 9.12; in [6], 5.4; in experiment [7], 5.9; in [8], 7.4; in experiment [9], 5.5; in experiment [10], 7.3. The “fold greater affinity than for the NPFF1 receptor” value in [4] was 31 fold; in experiment [5], 77 fold.
